Laboratory results from patent publication US20230072197A1 (KOREA UNIVERSITY RESEARCH AND BUSINESS FOUNDATION, published 2023).
Numbering of substitutions follows the chain as printed. In names and notes the source's numbering stands.

B1: Fc variant L309G/Q311L/M428L (bacterial display) (other)
chain: DKTHTCPPCPAPELLGGPSVFLFPPKPKDTLMISRTPEVTCVVVDVSHEDPEVKFNWYVDGVEVHNAKTKPREEQYNSTYRVVSVLTVGHLDWLNGKEYKCKVSNKALPAPIEKTISKAKGQPREPQVYTLPPSRDELTKNQVSLTCLVKGFYPSDIAVEWESNGQPENNYKTTPPVLDSDGSFFLYSKLTVDKSRWQQGNVFSCSVLHEALHNHYTQKSLSLSPGK
notes: also called Q311L in M428L and L309G Fc variant
B2: Fc variant L309G/Q311A/M428L (bacterial display) (other)
chain: B1 chain with L91A
notes: also called Q311A in M428L and L309G Fc variant
B3: Fc variant L309G/Q311H/M428L (bacterial display) (other)
chain: B1 chain with L91H
notes: also called Q311H in M428L and L309G Fc variant
B4: Fc variant L309G/Q311I/M428L (bacterial display) (other)
chain: B1 chain with L91I
notes: also called Q311I in M428L and L309G Fc variant
B5: Fc variant L309G/Q311K/M428L (bacterial display) (other)
chain: B1 chain with L91K
notes: also called Q311K in M428L and L309G Fc variant
B6: Fc variant L309G/Q311T/M428L (bacterial display) (other)
chain: B1 chain with L91T
notes: also called Q311T in M428L and L309G Fc variant
B7: Fc variant L309G/Q311V/M428L (bacterial display) (other)
chain: B1 chain with L91V
notes: also called Q311V in M428L and L309G Fc variant
B8: Fc variant L309G/Q311W/M428L (bacterial display) (other)
chain: B1 chain with L91W
notes: also called Q311W in M428L and L309G Fc variant
B9: Fc variant L309G/Q311Y/M428L (bacterial display) (other)
chain: B1 chain with L91Y
notes: also called Q311Y in M428L and L309G Fc variant

These binders were tested against human FcRn (probe in the FACS analysis of bacterially displayed Fc variants) (human, UniProt P55899 24-297; P61769 21-119, limits assumed) (assay: FACS of bacterially displayed Fc variants with human FcRn, pH 6.0).

Binding result, binds:
B1
B2
B3
B4
B5
B6
B7
B8
B9
